Data taken from publication PMC3338918 (Angiogenesis, 2012).

Target: T1, hVEGFR3-hFc (human, UniProt P35916 25-775)
T1 construct: human VEGFR3; source: bought: R&D Systems
T1 sequence (looked up): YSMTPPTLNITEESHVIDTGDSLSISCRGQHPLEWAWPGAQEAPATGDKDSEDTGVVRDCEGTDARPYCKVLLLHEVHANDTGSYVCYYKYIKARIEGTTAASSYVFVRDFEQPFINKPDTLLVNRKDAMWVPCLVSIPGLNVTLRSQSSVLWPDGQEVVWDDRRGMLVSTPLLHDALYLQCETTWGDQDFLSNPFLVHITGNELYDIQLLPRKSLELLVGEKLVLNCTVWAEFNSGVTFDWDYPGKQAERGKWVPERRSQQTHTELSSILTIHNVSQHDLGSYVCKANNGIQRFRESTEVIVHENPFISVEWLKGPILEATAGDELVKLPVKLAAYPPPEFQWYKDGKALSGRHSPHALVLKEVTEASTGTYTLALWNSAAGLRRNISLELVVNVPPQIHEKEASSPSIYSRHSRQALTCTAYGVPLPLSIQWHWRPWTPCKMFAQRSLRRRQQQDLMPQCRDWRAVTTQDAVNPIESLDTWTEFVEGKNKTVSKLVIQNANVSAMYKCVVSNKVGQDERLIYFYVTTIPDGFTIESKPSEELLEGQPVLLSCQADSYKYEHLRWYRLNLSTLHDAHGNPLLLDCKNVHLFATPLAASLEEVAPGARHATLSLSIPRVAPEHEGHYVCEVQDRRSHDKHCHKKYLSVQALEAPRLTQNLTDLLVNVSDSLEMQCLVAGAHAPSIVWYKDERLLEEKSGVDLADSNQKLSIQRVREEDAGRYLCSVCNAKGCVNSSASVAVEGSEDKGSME
Experiment: SPR; Biacore 3000, CM5 chip, 25°C, HBS-T (10 mM Hepes, 150 mM NaCl, 3.4 mM EDTA, 0.05% polysorbate 20, pH 7.4); VEGF Trap or receptor-Fc captured at low density on amine-coupled Protein A, ligands injected (1.0–0.062 nM VEGF-A, 2.5–0.156 nM VEGF-B(10-108), 5.0–0.078 nM PlGF); kd of VEGF-A ligands by the 'fixed kd' procedure on a Biacore 2000 (~2–3 h); KD = kd/ka
Conditions: both partners purified

B1: human VEGF-C (ligand, UniProt P49767 112-227, looked up)
chain: AHYNTEILKSIDNEWRKTQCMPREVCIDVGKEFGVATNTFFKPPCVSVYRCGGCCNSEGLQCMNTSTSYLSKTLFEITVPLSQGPKPVTISFANHTSCRCMSKLDVYRQVHSIIRR
notes: human VEGF-C; source: bought: R&D Systems
  binding result: binds

B2: human VEGF-D (ligand, UniProt O43915 89-205, looked up)
chain: FAATFYDIETLKVIDEEWQRTQCSPRETCVEVASELGKSTNTFFKPPCVNVFRCGGCCNEESLICMNTSTSYISKQLFEISVPLTSVPELVPVKVANHTGCKCLPTAPRHPYSIIRR
notes: human VEGF-D; source: bought: R&D Systems
  binding result: binds
